Source: patent US20190032049

How the values were obtained:
[1] = tested on: tetR:KRAB (tetR:K) (Escherichia coli); assay: cell_activity; conditions: no doxycycline, stable expression, AAVS1/TetO7 K562
[2] = tested on: tetR:DNMT3A (tetR:D3A) (Escherichia coli); assay: cell_activity; conditions: no doxycycline, stable expression, slower kinetics

TetO7 (seven tandem TetO repeats)
activity (% eGFP-negative cells) [1]: 100 | activity (% eGFP-negative cells) [2]: 100
